Data on 1 substance can be found in patent US20050255464A1, “Methods for the identification of peptidyl compounds interacting with extracellular target molecules” (priority 2001, published 2005).

The test concerns the target fusion protein encoded by plasmid pIcoFLAGXa (amino terminal FLAG epitope, Factor Xa cleavage sequence Ile-Glu-Gly-Arg-Gly, thioredoxin with the V5 epitope at the active site, GPI linkage), displayed on COS7 cells (E. coli) [thioredoxin: P0AA25]. Briefly: cell-based or functional assay.

Factor Xa (enzyme): the cells selected on streptavidin magnetic beads with biotin anti-FLAG antibody after incubation with Factor Xa is 0 % of cells.
